Measurements from article PMC4803053.

Target: DSB nucleosomes (position of the break not stated; EMSAs of Figures 5A and 6A) (human) (UniProt P0C0S8)

Substance: hMidm1m2–AID (Δ746–751/S813A/E829A/R847A/Q849A/L852A/K853A/N854A/D856A) (from UniProt Q9Y5B9 644-988) (domain or fragment)
- hexasome formation in EMSA with DSB nucleosomes, against wild-type hMid–AID: 2 fold
